Assay results reported in paper PMC4944158.

Molecular target: GST-RabGAP5 C-terminal aa578-760
Assay: pull-down; GST fusion on Glutathione Sepharose beads incubated with supernatants of homogenised synaptosomes of wt and σ1B −/− mouse brains, 4 hours at RT, PBS; Western blot

percent more AP-1 isolated than from wt extracts: 30%
Substance: AP-1/σ1A complexes of σ1B −/− mice (from UniProt P22892 1-822; O35643 1-943; P35585 1-423; P61967 1-158)
